In US20190241657A1:

Target: human CD3epsilon/delta-Fc fusion protein (heterodimer of CD3epsilon and CD3delta extracellular domains fused to human IgG Fc) (human) (UniProt P04234)
Assay: Biacore

Chain of human CD3epsilon/delta-Fc fusion protein (heterodimer of CD3epsilon and CD3delta extracellular domains fused to human IgG Fc) (human) (chain, as listed by the source mutant, chain 1 of 2): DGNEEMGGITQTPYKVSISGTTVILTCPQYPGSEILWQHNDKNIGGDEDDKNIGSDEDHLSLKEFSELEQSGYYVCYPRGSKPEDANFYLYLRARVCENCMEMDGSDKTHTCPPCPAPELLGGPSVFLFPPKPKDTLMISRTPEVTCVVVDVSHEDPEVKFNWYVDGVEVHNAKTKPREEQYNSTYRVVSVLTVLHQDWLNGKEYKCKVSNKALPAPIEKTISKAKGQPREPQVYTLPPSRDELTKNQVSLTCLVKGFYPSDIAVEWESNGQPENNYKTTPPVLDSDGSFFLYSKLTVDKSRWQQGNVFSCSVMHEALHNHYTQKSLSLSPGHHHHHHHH
Chain of human CD3epsilon/delta-Fc fusion protein (heterodimer of CD3epsilon and CD3delta extracellular domains fused to human IgG Fc) (human) (P04234 22-105, stated change not applied, chain 2 of 2): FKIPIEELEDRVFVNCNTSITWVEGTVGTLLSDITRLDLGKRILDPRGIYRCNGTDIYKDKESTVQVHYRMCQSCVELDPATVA

Kd: 9 nM
Substance: Single chain antibody DART format MGD006 (CD123xCD3 bi-specific diabody) (bispecific antibody)
